According to IntAct's records for PubMed 10413501:

B1: Ribonuclease inhibitor (Homo sapiens), P13489 (parent)
chain: MSLDIQSLDIQCEELSDARWAELLPLLQQCQVVRLDDCGLTEARCKDISSALRVNPALAELNLRSNELGDVGVHCVLQGLQTPSCKIQKLSLQNCCLTGAGCGVLSSTLRTLPTLQELHLSDNLLGDAGLQLLCEGLLDPQCRLEKLQLEYCSLSAASCEPLASVLRAKPDFKELTVSNNDINEAGVRVLCQGLKDSPCQLEALKLESCGVTSDNCRDLCGIVASKASLRELALGSNKLGDVGMAELCPGLLHPSSRLRTLWIWECGITAKGCGDLCRVLRAKESLKELSLAGNELGDEGARLLCETLLEPGCQLESLWVKSCSFTAACCSHFSSVLAQNRFLLELQISNNRLEDAGVRELCQGLGQPGSVLRVLWLADCDVSDSSCSSLAATLLANHSLRELDLSNNCLGDAGILQLVESVRQPGCLLEQLVLYDIYWSEEMEDRLQALEKDKPSLRVIS

Variants of: B1
Settings: with rnas1_bovin RNASE1, P61823
Sequence of rnas1_bovin RNASE1, P61823 (P61823 whole entry): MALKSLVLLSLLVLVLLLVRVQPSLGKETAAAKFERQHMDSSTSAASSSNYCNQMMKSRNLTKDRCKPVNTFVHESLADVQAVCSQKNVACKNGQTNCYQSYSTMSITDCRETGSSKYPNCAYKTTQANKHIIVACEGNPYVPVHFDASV

effect of a mutation on the interaction	Variant
decreasing interaction	MSLDIQSLDIQCEELSDARWAELLPLLQQCQVVRLDDCGLTEARCKDISSALRVNPALAELNLRSNELGDVGVHCVLQGLQTPSCKIQKLSLQNCCLTGAGCGVLSSTLRTLPTLQELHLSDNLLGDAGLQLLCEGLLDPQCRLEKLQLEYCSLSAASCEPLASVLRAKPDFKELTVSNNDINEAGVRVLCQGLKDSPCQLEALKLESCGVTSDNCRDLCGIVASKASLRELALGSNKLGDVGMAELCPGLLHPSSRLRTLWIWECGITAKGCGDLCRVLRAKESLKELSLAGNELGDEGARLLCETLLEPGCQLESLWVKSCSFTAACCSHFSSVLAQNRFLLELQISNNRLEDAGVRELCQGLGQPGSVLRVLWLADCDVSDSSCSSLAATLLANHSLRELDLSNNCLGDAGILQLVESVRQPGCLLEQLVLYDIFWSEEMEDRLQALEKDKPSLRVIS [Y438F]

Variants of: B1
Settings: with rnas1_bovin RNASE1, P61823
Remark: another data set of the same source

effect of a mutation on the interaction	Variant
decreasing interaction	MSLDIQSLDIQCEELSDARWAELLPLLQQCQVVRLDDCGLTEARCKDISSALRVNPALAELNLRSNELGDVGVHCVLQGLQTPSCKIQKLSLQNCCLTGAGCGVLSSTLRTLPTLQELHLSDNLLGDAGLQLLCEGLLDPQCRLEKLQLEYCSLSAASCEPLASVLRAKPDFKELTVSNNDINEAGVRVLCQGLKDSPCQLEALKLESCGVTSDNCRDLCGIVASKASLRELALGSNKLGDVGMAELCPGLLHPSSRLRTLWIWECGITAKGCGDLCRVLRAKESLKELSLAGNELGDEGARLLCETLLEPGCQLESLWVKSCSFTAACCSHFSSVLAQNRFLLELQISNNRLEDAGVRELCQGLGQPGSVLRVLWLADCDVSDSSCSSLAATLLANHSLRELDLSNNCLGDAGILQLVESVRQPGCLLEQLVLFDIYWSEEMEDRLQALEKDKPSLRVIS [Y435F]
